Assay results reported in patent US20230192820A1 (published 2023).

Biological target: Wild type
Assay: ELISA

B1: Mab362 (antibody, V domains shown)
VH: QVQLVESGGGVVQPGRSLRLSCAASGFSFSSYGMHWVRQAPGKGLEWVAVIWYDGSDKYYADSVKGRFTISRDNSKNTLYLQLNSLRAEDTAIYYCARERYFDWIFDFWGQGTLVTVSS
VL: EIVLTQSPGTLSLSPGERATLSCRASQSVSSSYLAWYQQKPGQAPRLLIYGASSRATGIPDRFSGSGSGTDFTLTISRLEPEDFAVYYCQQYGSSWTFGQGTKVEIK
Q: For B1, which EC50 is on record?
A: 0.64 µg/mL
